Measured values taken from publication PMC10983791.

What was measured:
[1] = substrate: C[S+](CC[C@H](N)C(=O)[O-])C[C@H]1O[C@@H](n2cnc3c(N)ncnc32)[C@H](O)[C@@H]1O; assay: KM determination by method of initial rates, COMT; format: biochemical, human; conditions: other: COMT; substrate 100 μM; MTase-Glo readout; pH 8.0
[2] = substrate: NC[C@H](O)c1ccc(O)c(O)c1; assay: KM determination by method of initial rates, COMT; format: biochemical, human; conditions: other: COMT; SAM 100 μM; MTase-Glo readout; pH 8.0
[3] = substrate: C[S+](CC[C@H](N)C(=O)[O-])C[C@H]1O[C@@H](n2cnc3c(N)ncnc32)[C@H](O)[C@@H]1O; assay: KM determination by method of initial rates, PNMT; format: biochemical, human; conditions: other: PNMT; norepinephrine 100 μM; pH 8.0
[4] = substrate: NC[C@H](O)c1ccc(O)c(O)c1; assay: KM determination by method of initial rates, PNMT; format: biochemical, human; conditions: other: PNMT; SAM 100 μM; fit to substrate inhibition model; pH 8.0
[5] = substrate: C[S+](CC[C@H](N)C(=O)[O-])C[C@H]1O[C@@H](n2cnc3c(N)ncnc32)[C@H](O)[C@@H]1O; assay: KM determination by method of initial rates, HNMT; format: biochemical, human; conditions: other: HNMT; substrate 100 μM; MTase-Glo readout; pH 8.0
[6] = substrate: NCCc1c[nH]cn1; assay: purified protein, by the assay type; conditions: other: HNMT; SAM 100 μM; MTase-Glo readout; pH 8.0
[7] = substrate: C[S+](CC[C@H](N)C(=O)[O-])C[C@H]1O[C@@H](n2cnc3c(N)ncnc32)[C@H](O)[C@@H]1O; assay: KM determination by method of initial rates, GNMT; format: biochemical, human; conditions: other: GNMT; substrate 100 μM; MTase-Glo readout; pH 8.0
[8] = substrate: C[S+](CC[C@H](N)C(=O)[O-])C[C@H]1O[C@@H](n2cnc3c(N)ncnc32)[C@H](O)[C@@H]1O; assay: KM determination by method of initial rates, NNMT; format: biochemical, human; conditions: other: NNMT; substrate 100 μM; MTase-Glo readout; pH 8.0
[9] = substrate: NC(=O)c1cccnc1; assay: purified protein, by the assay type; conditions: other: NNMT; SAM 100 μM; MTase-Glo readout; pH 8.0

B1: COMT (Homo sapiens) (protein)
chain: MPEAPPLLLAAVLLGLVLLVVLLLLLRHWGWGLCLIGWNEFILQPIHNLLMGDTKEQRILNHVLQHAEPGNAQSVLEAIDTYCEQKEWAMNVGDKKGKIVDAVIQEHQPSVLLELGAYCGYSAVRMARLLSPGARLITIEINPDCAAITQRMVDFAGVKDKVTLVVGASQDIIPQLKKKYDVDTLDMVFLDHWKDRYLPDTLLLEECGLLRKGTVLLADNVICPGAPDFLAHVRGSSCFECTHYQSFLEYREVVDGLEKAIYKGPGSEAGP
Km [1]: 14.5 ± 1.8 µM | Km [2]: 13.7 ± 2.2 µM

B2: PNMT (Homo sapiens) (protein)
chain: MSGADRSPNAGAAPDSAPGQAAVASAYQRFEPRAYLRNNYAPPRGDLCNPNGVGPWKLRCLAQTFATGEVSGRTLIDIGSGPTVYQLLSACSHFEDITMTDFLEVNRQELGRWLQEEPGAFNWSMYSQHACLIEGKGECWQDKERQLRARVKRVLPIDVHQPQPLGAGSPAPLPADALVSAFCLEAVSPDLASFQRALDHITTLLRPGGHLLLIGALEESWYLAGEARLTVVPVSEEEVREALVRSGYKVRDLRTYIMPAHLQTGVDDVKGVFFAWAQKVGL
Km [3]: 3.6 ± 0.6 µM | Km [4]: 16.2 ± 4.3 µM

B3: HNMT (Homo sapiens) (protein)
chain: MASSMRSLFSDHGKYVESFRRFLNHSTEHQCMQEFMDKKLPGIIGRIGDTKSEIKILSIGGGAGEIDLQILSKVQAQYPGVCINNEVVEPSAEQIAKYKELVAKTSNLENVKFAWHKETSSEYQSRMLEKKELQKWDFIHMIQMLYYVKDIPATLKFFHSLLGTNAKMLIIVVSGSSGWDKLWKKYGSRFPQDDLCQYITSDDLTQMLDNLGLKYECYDLLSTMDISDCFIDGNENGDLLWDFLTETCNFNATAPPDLRAELGKDLQEPEFSAKKEGKVLFNNTLSFIVIEA
Km [5]: 9.3 ± 2.1 µM | Km [6]: 5.3 ± 2.1 µM

B4: GNMT (Homo sapiens) (protein)
chain: MVDSVYRTRSLGVAAEGLPDQYADGEAARVWQLYIGDTRSRTAEYKAWLLGLLRQHGCQRVLDVACGTGVDSIMLVEEGFSVTSVDASDKMLKYALKERWNRRHEPAFDKWVIEEANWMTLDKDVPQSAEGGFDAVICLGNSFAHLPDCKGDQSEHRLALKNIASMVRAGGLLVIDHRNYDHILSTGCAPPGKNIYYKSDLTKDVTTSVLIVNNKAHMVTLDYTVQVPGAGQDGSPGLSKFRLSYYPHCLASFTELLQAAFGGKCQHSVLGDFKPYKPGQTYIPCYFIHVLKRTD
Km [7]: 12.1 ± 3.6 µM

B5: NNMT (Homo sapiens) (protein)
chain: MESGFTSKDTYLSHFNPRDYLEKYYKFGSRHSAESQILKHLLKNLFKIFCLDGVKGDLLIDIGSGPTIYQLLSACESFKEIVVTDYSDQNLQELEKWLKKEPEAFDWSPVVTYVCDLEGNRVKGPEKEEKLRQAVKQVLKCDVTQSQPLGAVPLPPADCVLSTLCLDAACPDLPTYCRALRNLGSLLKPGGFLVIMDALKSSYYMIGEQKFSSLPLGREAVEAAVKEAGYTIEWFEVISQSYSSTMANNEGLFSLVARKLSRPL
Km [8]: 11.9 ± 5.7 µM | Km [9]: 3.8 ± 0.5 µM
